Results as given in patent US20230212306A1 (Daiichi Sankyo, published 2023).

Columns and labels:
[1] = molecular target: T1, human TLR7 (variant 2)-Flag, expressed in HEK293 cells (human, UniProt Q9NYK1 27-1049); assay: flow cytometry on fixed and permeabilised HEK293 cells expressing human TLR7 (variant 2)-Flag
T1 construct: Transient expression from pcDNA3.1 in Lenti-X HEK293T cells; cells fixed and permeabilised before staining; not shown: Flag tag
T1 sequence: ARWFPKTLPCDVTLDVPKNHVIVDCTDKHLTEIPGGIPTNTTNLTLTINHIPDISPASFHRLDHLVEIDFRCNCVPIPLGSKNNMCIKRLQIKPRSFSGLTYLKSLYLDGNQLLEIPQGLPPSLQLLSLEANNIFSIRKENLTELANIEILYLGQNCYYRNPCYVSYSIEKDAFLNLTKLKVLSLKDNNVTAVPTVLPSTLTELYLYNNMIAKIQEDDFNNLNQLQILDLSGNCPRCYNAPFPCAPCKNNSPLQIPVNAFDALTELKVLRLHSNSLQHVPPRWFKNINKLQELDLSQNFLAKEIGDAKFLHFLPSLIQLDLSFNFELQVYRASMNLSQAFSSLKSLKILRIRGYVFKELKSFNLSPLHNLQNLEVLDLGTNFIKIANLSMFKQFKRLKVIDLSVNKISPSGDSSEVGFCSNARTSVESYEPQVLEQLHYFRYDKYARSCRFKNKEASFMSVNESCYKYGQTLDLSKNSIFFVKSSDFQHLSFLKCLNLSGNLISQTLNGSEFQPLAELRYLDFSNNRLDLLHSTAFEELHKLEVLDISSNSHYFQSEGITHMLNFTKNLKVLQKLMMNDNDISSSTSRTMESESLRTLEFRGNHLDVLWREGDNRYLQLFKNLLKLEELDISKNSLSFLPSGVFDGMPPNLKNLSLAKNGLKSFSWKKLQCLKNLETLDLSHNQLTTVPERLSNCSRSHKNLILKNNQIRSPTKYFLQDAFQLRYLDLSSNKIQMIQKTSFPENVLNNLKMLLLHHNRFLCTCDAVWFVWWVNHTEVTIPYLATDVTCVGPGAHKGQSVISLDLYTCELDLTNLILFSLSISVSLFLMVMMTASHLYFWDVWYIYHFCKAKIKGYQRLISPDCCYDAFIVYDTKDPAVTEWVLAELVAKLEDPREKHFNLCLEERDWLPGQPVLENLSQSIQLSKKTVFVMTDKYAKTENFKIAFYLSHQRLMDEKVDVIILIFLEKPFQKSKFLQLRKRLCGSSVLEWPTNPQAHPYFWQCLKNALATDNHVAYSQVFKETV
Source text: (§1) The HEK293 cells expressing human TLR7 (variant 1)-Flag prepared in 8)-1, the HEK293 cells expressing human TLR7 (variant 2)-Flag prepared in 8)-2, the HEK293 cells expressing monkey TLR7-Flag prepared in 8)-3, the HEK293 cells expressing mouse TLR7-Flag prepared in 8)-4, and the HEK293 cells expressing rat TLR7-Flag prepared in 8)-5 were immobilized/subjected to membrane permeation with a Fixation and Permeabilization Solution (Becton, Dickinson and Company) and thereafter stained using huAT01_H3L2_IgG1LALA, which is one of the humanized anti-human TLR7 antibodies, and ALEXA FLUOR® 647 AffiniPure Goat anti-human IgG+IgM (H+L) (Jackson ImmunoResearch Inc.), which is the secondary antibody.
(§2) The binding of the humanized anti-human TLR7 antibody to human TLR7 was detected based on flow cytometry (Miltenyi Biotec K.K.), and the data was analyzed using software (Flowjo) which analyzes the data of flow cytometry.

[2] = molecular target: T2, human TLR7 (variant 1)-Flag, expressed in HEK293 cells (human, UniProt Q9NYK1 27-1049); assay: flow cytometry on fixed and permeabilised HEK293 cells expressing human TLR7 (variant 1)-Flag
T2 construct: Transient expression from pcDNA3.1 in Lenti-X HEK293T cells; cells fixed and permeabilised before staining; not shown: Flag tag
T2 sequence: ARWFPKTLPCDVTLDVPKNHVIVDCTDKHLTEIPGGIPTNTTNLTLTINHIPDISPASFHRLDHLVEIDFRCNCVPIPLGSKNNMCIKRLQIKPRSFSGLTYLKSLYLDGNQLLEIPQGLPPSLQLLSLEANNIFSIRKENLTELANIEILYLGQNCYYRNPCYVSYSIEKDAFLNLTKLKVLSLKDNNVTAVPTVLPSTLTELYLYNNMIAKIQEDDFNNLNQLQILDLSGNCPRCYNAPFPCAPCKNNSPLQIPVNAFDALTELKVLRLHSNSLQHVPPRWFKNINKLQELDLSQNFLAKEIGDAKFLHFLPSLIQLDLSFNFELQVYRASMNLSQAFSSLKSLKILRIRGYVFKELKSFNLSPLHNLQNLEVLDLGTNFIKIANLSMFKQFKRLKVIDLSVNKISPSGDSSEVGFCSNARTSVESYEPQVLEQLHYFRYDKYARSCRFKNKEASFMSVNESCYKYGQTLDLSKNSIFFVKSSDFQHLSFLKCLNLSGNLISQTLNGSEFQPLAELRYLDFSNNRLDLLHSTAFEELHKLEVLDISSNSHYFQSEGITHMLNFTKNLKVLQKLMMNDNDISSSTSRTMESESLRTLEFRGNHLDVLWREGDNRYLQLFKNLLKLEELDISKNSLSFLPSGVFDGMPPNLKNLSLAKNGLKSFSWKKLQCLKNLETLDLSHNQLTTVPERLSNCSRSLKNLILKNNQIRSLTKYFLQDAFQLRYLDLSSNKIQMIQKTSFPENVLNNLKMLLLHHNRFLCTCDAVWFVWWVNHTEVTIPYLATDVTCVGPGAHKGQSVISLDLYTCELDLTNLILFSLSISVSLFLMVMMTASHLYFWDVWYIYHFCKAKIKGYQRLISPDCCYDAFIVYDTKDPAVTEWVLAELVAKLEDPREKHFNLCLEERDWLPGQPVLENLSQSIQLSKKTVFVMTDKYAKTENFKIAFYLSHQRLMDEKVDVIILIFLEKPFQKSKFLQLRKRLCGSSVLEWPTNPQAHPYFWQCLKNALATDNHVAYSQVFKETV
Source text: as §1, §2

B1: huAT01_H3L2_IgG1LALA antibody (antibody, V domains shown)
VH: QVQLVQSGAEVKKPGASVKVSCKASGYTFTNNWLHWVRQAPGQGLEWMGDIYPSNGRTNYAQKFQGRVTLTVDKSTSTAYMELSSLRSEDTAVYFCARERGYFDYWGQGTLVTVSS
VL: DIQMTQSPSSLSASVGDRVTITCKASQDINKYIAWYQQKPGKAPKLLIHYTSTLQPGIPSRFSGSGSGRDYTLTISSLQPEDFATYYCLQYDYLLTFGQGTKVEIKR
notes: Humanized AT01; heavy huAT01_H3_IgG1LALA, light huAT01_L2
binding result [1]: binds
binding result [2]: binds
